Measurements: paper PMC10786891, “Massively parallel profiling of RNA-targeting CRISPR-Cas13d”
Changes are numbered by the printed parent chain. Numbers in names are those of the source.

Molecular target: T1, EsCas13d, nuclease-dead (Eubacterium siraeum, UniProt B0MS50, R295A;H300A;R849A;H854A)
T1 sequence: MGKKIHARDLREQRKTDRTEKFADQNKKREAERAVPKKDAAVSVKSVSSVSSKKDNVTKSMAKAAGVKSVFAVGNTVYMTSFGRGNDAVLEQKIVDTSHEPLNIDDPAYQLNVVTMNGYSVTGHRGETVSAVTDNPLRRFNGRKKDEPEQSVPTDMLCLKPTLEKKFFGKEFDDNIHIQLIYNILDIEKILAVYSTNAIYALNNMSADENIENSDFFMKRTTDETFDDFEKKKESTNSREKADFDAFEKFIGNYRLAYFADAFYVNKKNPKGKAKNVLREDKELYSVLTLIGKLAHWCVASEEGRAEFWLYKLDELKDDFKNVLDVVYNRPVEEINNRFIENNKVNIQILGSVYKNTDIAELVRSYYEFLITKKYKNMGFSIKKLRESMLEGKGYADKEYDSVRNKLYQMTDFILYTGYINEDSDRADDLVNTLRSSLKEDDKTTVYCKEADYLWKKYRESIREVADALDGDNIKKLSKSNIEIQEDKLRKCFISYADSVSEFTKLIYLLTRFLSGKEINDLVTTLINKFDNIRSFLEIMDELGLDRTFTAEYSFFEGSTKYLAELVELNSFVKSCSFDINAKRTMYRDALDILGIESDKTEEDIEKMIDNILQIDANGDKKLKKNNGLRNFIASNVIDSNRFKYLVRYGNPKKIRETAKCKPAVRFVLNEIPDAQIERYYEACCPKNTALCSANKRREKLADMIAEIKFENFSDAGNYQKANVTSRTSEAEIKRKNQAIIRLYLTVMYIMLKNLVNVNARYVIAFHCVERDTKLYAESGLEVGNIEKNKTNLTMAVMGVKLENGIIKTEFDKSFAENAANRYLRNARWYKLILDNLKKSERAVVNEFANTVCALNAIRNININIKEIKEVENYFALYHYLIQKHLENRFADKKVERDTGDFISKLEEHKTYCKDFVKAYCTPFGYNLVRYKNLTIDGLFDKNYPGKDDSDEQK
Test: crRNA (strand 1, pre-loaded); Mg2+; 40 mM Tris-HCl pH 7.5, 150 mM NaCl, 6 mM MgCl2, 1 mM DTT, 0.1% Tween-20, 0.2 mg/ml BSA; 25 C; 10 min per concentration, then washed
Settings: tags: His6-TwinStrep-SUMO cleaved; N-terminal SNAP kept (SNAP-Surface 488); label: 3' end held by stalled T7 RNA polymerase

B1: target 1 insC 3' of 13,insG 3' of 11 (mixed)
RNA 1: CACCCGUGCAAAAAUGCAGGGGUCUAAAACUGAGCGGAUAACCUCUCUAUGG
RNA 2: GGGAAUGGAUCCACAUCUACGAAUUCGUACCAUAGAGAGCGUGUAUCCGCUCACCGAGAUCGGAAGAGCACACGU
With B1 the Kd was 28.5 ± 3.4 nM.

B2: target 1 insC 3' of 18,insA 3' of 15 (mixed)
RNA 1: B1 RNA 1
RNA 2: B1 RNA 2 with G35C, A36G, G37A, A38G, G39A, C40A, U42G, G43U
B2 was tested, and the Kd was 25.1 ± 1.2 nM.

B3: target 1 C4U,G5C (mixed)
RNA 1: B1 RNA 1
RNA 2: GGGAAUGGAUCCACAUCUACGAAUUCGUACCAUAGAGAGGUUAUCCCUUCACCGAGAUCGGAAGAGCACACGU
Work on B3 yielded a Kd of 39 ± 4 nM.

B4: target 1 A1G,C22U (mixed)
RNA 1: B1 RNA 1
RNA 2: B3 RNA 2 with C30U, C47G, U48C, A51G
B4 was tested, and the Kd was 13.9 ± 2.5 nM.

B5: target 1 insG 3' of 16,insG 3' of 14 (mixed)
RNA 1: B1 RNA 1
RNA 2: B1 RNA 2 with A38G, G39A, C40G, U42G, G43U
B5 gave a Kd of 15.6 ± 1.3 nM.

B6: target 1 insA 3' of 15,insU 3' of 6 (mixed)
RNA 1: B1 RNA 1
RNA 2: B1 RNA 2 with G39A, C40G, G43U, U44A, A45U, U46C, C48U
Binder B6 has a Kd of 11.3 ± 0.5 nM.

B7: target 1 U8A,U10G (mixed)
RNA 1: B1 RNA 1
RNA 2: B3 RNA 2 with U42G, U44A, C47G, U48C
With B7 the Kd was 18.2 ± 0.8 nM.

B8: target 1 insA 3' of 21,insG 3' of 7 (mixed)
RNA 1: B1 RNA 1
RNA 2: GGGAAUGGAUCCACAUCUACGAAUUCGUACCAAUAGAGAGGUUAUCGCGCUCACCGAGAUCGGAAGAGCACACGU
B8 showed a Kd of 14.9 ± 0.6 nM.

B9: target 1 U3G,U10G (mixed)
RNA 1: B1 RNA 1
RNA 2: B3 RNA 2 with U42G, C47G, U48C, U49G
B9 gave a Kd of 35.2 ± 2.9 nM.

B10: target 1 insC 3' of 13,insU 3' of 2 (mixed)
RNA 1: B1 RNA 1
RNA 2: B1 RNA 2 with G43U, U44A, A45U, U46C, C48G, G49C, C50U, U51C, C52U
Work on B10 yielded a Kd of 14.4 ± 1.3 nM.

B11: target 1 insA 3' of 4,insG 3' of 2 (mixed)
RNA 1: B1 RNA 1
RNA 2: GGGAAUGGAUCCACAUCUACGAAUUCGUACCAUAGAGAGGUUAUCCGCAUCGACCGAGAUCGGAAGAGCACACGU
Work on B11 yielded a Kd of 7.7 ± 0.6 nM.

B12: target 1 insC 3' of 18,insU 3' of 18 (mixed)
RNA 1: B1 RNA 1
RNA 2: B1 RNA 2 with G35C, A36U, C40A, U42G, G43U
With B12 the Kd was 57 ± 6 nM.

B13: target 1 G5A,G17C (mixed)
RNA 1: B1 RNA 1
RNA 2: B3 RNA 2 with G35C, C47A, U48C
With B13 the Kd was 80 ± 21 nM.

B14: target 1 insC 3' of 14,insA 3' of 12 (mixed)
RNA 1: B1 RNA 1
RNA 2: B1 RNA 2 with G39C, C40G, U42A, G43U
In the case of B14, the Kd is reported as 70 ± 14 nM.

B15: target 1 insA 3' of 15,insC 3' of 10 (mixed)
RNA 1: B1 RNA 1
RNA 2: B1 RNA 2 with G39A, C40G, G43U, U44C
In the case of B15, the Kd is reported as roughly 80 nM.

B16: target 1 insA 3' of 17,insA 3' of 15 (mixed)
RNA 1: B1 RNA 1
RNA 2: B1 RNA 2 with G37A, A38G, G39A, C40A, U42G, G43U
B16 was tested, and the Kd was 8 ± 0.8 nM.

B17: target 1 insU 3' of 18,insA 3' of 15 (mixed)
RNA 1: B1 RNA 1
RNA 2: B1 RNA 2 with G35U, A36G, G37A, A38G, G39A, C40A, U42G, G43U
With B17 the Kd was 20.5 ± 2.5 nM.

B18: target 1 insC 3' of 19,insG 3' of 3 (mixed)
RNA 1: B1 RNA 1
RNA 2: B8 RNA 2 with A33U, U34C, G47C, C48G, G49C, C50U, U51G
Binder B18 has a Kd of 26 ± 1.4 nM.

B19: target 1 U8C,A14C (mixed)
RNA 1: B1 RNA 1
RNA 2: B3 RNA 2 with A38C, U44C, C47G, U48C
In the case of B19, the Kd is reported as 81 ± 14 nM.

B20: target 1 insA 3' of 13,insU 3' of 2 (mixed)
RNA 1: B1 RNA 1
RNA 2: B11 RNA 2 with G40A, U41G, A43U, U44A, C45U, G47C, C48G, A49C, G52U
For B20, the Kd was 4.3 ± 0.4 nM.

B21: target 1 C6A,U8A (mixed)
RNA 1: B1 RNA 1
RNA 2: B3 RNA 2 with U44A, C46A, C47G, U48C
Binder B21 has a Kd of 14.4 ± 0.4 nM.

B22: target 1 A16G,U19C (mixed)
RNA 1: B1 RNA 1
RNA 2: B3 RNA 2 with U33C, A36G, C47G, U48C
With B22 the Kd was 78 ± 33 nM.

B23: target 1 insU 3' of 22,insA 3' of 10 (mixed)
RNA 1: B1 RNA 1
RNA 2: B8 RNA 2 with C31U, A32C, U45A, C46U, G47C
In the case of B23, the Kd is reported as 43 ± 5 nM.

B24: target 1 U19G,C21U (mixed)
RNA 1: B1 RNA 1
RNA 2: B3 RNA 2 with C31U, U33G, C47G, U48C
B24 gave a Kd of 11.1 ± 1.3 nM.

B25: target 1 insA 3' of 22,insA 3' of 5 (mixed)
RNA 1: B1 RNA 1
RNA 2: B8 RNA 2 with C31A, A32C, G47C, C48G, G49A
In the case of B25, the Kd is reported as 7.2 ± 0.6 nM.

B26: target 1 insC 3' of 17,insG 3' of 9 (mixed)
RNA 1: B1 RNA 1
RNA 2: B8 RNA 2 with A33U, U34A, A35G, G36C, U45G, C46U, G47C
Work on B26 yielded a Kd of 35 ± 6 nM.

B27: target 1 U3C,G12U (mixed)
RNA 1: B1 RNA 1
RNA 2: B3 RNA 2 with G40U, C47G, U48C, U49C
With B27 the Kd was 19.4 ± 1.4 nM.

B28: target 1 insA 3' of 19,insA 3' of 3 (mixed)
RNA 1: B1 RNA 1
RNA 2: B8 RNA 2 with A33U, U34A, G47C, C48G, G49C, C50U, U51A
B28 gave a Kd of 16.7 ± 1 nM.

B29: target 1 C4G,G15U (mixed)
RNA 1: B1 RNA 1
RNA 2: B3 RNA 2 with G37U, C47G, U48G
For B29, the Kd was 22 ± 8 nM.

B30: target 1 C7G,G12A (mixed)
RNA 1: B1 RNA 1
RNA 2: B3 RNA 2 with G40A, C45G, C47G, U48C
In the case of B30, the Kd is reported as 15.4 ± 1.3 nM.

B31: target 1 insA 3' of 15,insC 3' of 15 (mixed)
RNA 1: B1 RNA 1
RNA 2: B1 RNA 2 with G39C, C40A, U42G, G43U
For B31, the Kd was 20.4 ± 1.6 nM.

B32: target 1 insG 3' of 16,insU 3' of 2 (mixed)
RNA 1: B1 RNA 1
RNA 2: GGGAAUGGAUCCACAUCUACGAAUUCGUACCAUAGAGGAGGUUAUCCGCUCUACCGAGAUCGGAAGAGCACACGU
B32 gave a Kd of 15.1 ± 1.3 nM.

B33: target 1 U19C,C22G (mixed)
RNA 1: B1 RNA 1
RNA 2: B3 RNA 2 with C30G, U33C, C47G, U48C
In the case of B33, the Kd is reported as roughly 80 nM.

B34: target 1 G5U,G17U (mixed)
RNA 1: B1 RNA 1
RNA 2: B3 RNA 2 with G35U, C47U, U48C
B34 gave a Kd of 62 ± 8 nM.
